Data: patent US12077566B2, “Mutants of recombinant immunoregulatory protein of Ganoderma lucidum and applications thereof” (priority 2017, dated 2024)

Columns and labels:
[1] = molecular target: EGFR extracellular domain (Homo sapiens, UniProt P00533); assay: Affinity test by surface plasmon resonance (Biacore T200, CM5 chip); assay type: binding; details: for Affinity with the EGFR (in words): compared with rLZ-8
Experimental: The Biacore™ T200 equipment (a Surface Plasmon Resonance from GE Company) is selected. Through the surface plasma resonance technology, the affinity of the rLZ-8 and the mutants thereof to the EGFR extracellular domain is tested. The CM5 chip is adopted to serve as the affinity test chip.
The EGFR extracellular domain (with an amino acid sequence of 25-645) serves as the ligand for coupling; 1 mg EGFR freeze-dried powders are diluted with HEPES buffer solution to a concentration of 400 μg/mL and set aside. Three 1.5 mL EP tubes are prepared; 10 μL ligand are respectively added into the three tubes, then 90 μL 10 mM sodium acetate with different pH values of 4.5, 5.0 and 5.5 are respectively added into the tubes and are mixed completely and uniformly; and a final concentration of the ligand is 40 μg/mL. Moreover, 200 μL 50 mM sodium acetate is added into another 1.5 mL EP tube.
The ligand has a molecular weight of 70 kDa, the analyte (rLZ-8) has a molecular weight of 12.4 kDa. In theory, one rLZ-8 […] can bind with one EGFR, and thus the stoichiometric ratio Sm is equal to 1. Through the following equations, the coupling amount RL of the ligand is calculated.
Through the experimental experience, the optimal reagent coupling amount is set to be 3*RL, and the coupling amount is set to be 1700 RU. The EGFR extracellular domain is successively coupled on the CM5 chip.
In the affinity test, in order to eliminate the influence of different concentrations on the affinity, every of the rLZ-8 and the mutants thereof are tested with eight concentrations, wherein: seven concentrations are gradient concentrations, and the last one is the test reference concentration.

[2] = tested on: human breast cancer MCF7 cells; assay: Orthotopic transplantation tumor model of human breast cancer MCF7 cells; assay type: in vivo, BALB/c nude mice; details: after administration for 28 days
Experimental: One day before the experiment, 0.5 mg of 17ß estradiol sustained release tablet is embedded below the neck skin of the BALB/c nude mice.

[3] = tested on: liver cancer, lung cancer, breast cancer and colon cancer; assay: Animal pharmacodynamic experiments of liver, lung, breast and colon cancer (summary statement); assay type: in vivo, mice; details: breast and colon cancer models together
[4] = tested on: human colon cancer SW480 cells; assay: Transplantation tumor model of human colon cancer SW480 cells; assay type: in vivo, BALB/c nude mice; details: after administration for 28 days
Experimental: The RPMI1640 medium containing 10% fetal bovine serum is selected for the human colon cancer SW480 cells, and then is placed in the CO2 constant-temperature incubator at 37° C. for culturing. The SW480 cells at the logarithmic phase are digested by pancreatin and thereafter washed with serum-free RPMI1640 medium; 2×10^6 cells are inoculated below the back skin of the BALB/c nude mice; after the tumor blocks for observation are formed and have the diameter larger than 0.5 cm, the mice are divided into groups randomly; and the transplantation tumor model of human colon cancer SW480 cells are constructed in the BALB/c nude mice.

[5] = tested on: human lung cancer A549 cells; assay: Orthotopic transplantation tumor model of human lung cancer A549 cells; details: after administration for 28 days;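 also: test animals were NOG mice aged 6-8 weeks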
[6] = tested on: Hep G2 cytomembrane; assay: In vitro cellular activity: binding with Hep G2 cytomembrane and entering the cell; assay type: cell-based; details: 100 μg/mL
[7] = tested on: human liver cancer Hep G2 cells
Source text: Two weeks later, the model mice are divided into groups randomly, and each group has 10 mice. The administration method is caudal vein injection, once a day, for consecutive 28 days (qd×28, i.v.). […] During the experiment, if the mouse dies, the dead mouse is weighted on the same day, and the tumor tissue is taken out to be weighted. For the living mouse after administration for 28 days, the mouse is killed, and then the tumor tissue is taken out to be weighted. The death time and death number of the mice in each group are recorded in detail; the survival conditions of the mice of the experimental groups and the control groups are analyzed, and the survival rate is calculated, wherein the survival rate is obtained through subtracting the death number of the mice from the total number of the mice, and then dividing the difference by the total number of the mice.

[8] = EGFR extracellular domain coupled on CM5 chip, analyte 4-256 nM

B1: rLZ-8 (K16A/S18A/K41A/D45A): alanine mutant of rLZ-8 at K16, S18, K41 and D45 (protein)
chain: MSDTALIFRLAWDVKALAFDYTPNWGRGNPNNFIDTVTFPAVLTAKAYTYRVAVSGRNLGVKPSYAVESDGSQKVNFLEYNSGYGIADTNTIQVFVVDPDTNNDFIIAQWN
Dissociation rate constant (koff) [1, 8]: 0.00423 s⁻¹ | Ka [1, 8]: 139 M⁻¹ s⁻¹ | Affinity with the EGFR (in words) [1]: obviously decreased by 2-3 orders of magnitudes | Affinity with the EGFR (in words) ([1]; listed as rLZ-8 (K16A/S18A/K41 A/D45A)): obviously decreased affinity | Mice tumor weight after experiment [2]: 1.02 ± 0.33 g | Tumor inhibitory effect (in words) [2]: nearly no tumor inhibitory effect | Tumor inhibitory effect (in words) [3]: nearly no tumor inhibitory effect | Mice tumor weight after experiment [4]: 3.12 ± 0.54 g | Tumor inhibitory effect (in words) [4]: nearly no tumor inhibitory effect | Mice survival rate after experiment [5]: 10% | Mice tumor weight after experiment [5]: 1.22 ± 0.83 g | Mice weight after experiment [5]: 17.6 ± 1.4 g | Tumor inhibitory effect (in words) [5]: nearly no tumor inhibitory effect | Binding with the Hep G2 cytomembrane and entering the cell (in words) [6]: little binding amount with the Hep G2 cytomembrane and nearly cannot be observed to enter the cell | Tumor inhibitory effect (in words) ([7]; after administration for 28 days): nearly no tumor inhibitory effect | Mice weight after experiment ([7]; mouse, in vivo): 17.3 ± 1.5 g | Mice tumor weight after experiment ([7]; qd×28 i.v., rLZ-8 and mutants 0.5 mg/kg, sorafenib 50 mg/kg): 1.62 ± 0.72 g | Survival rate of mice after experiment ([7]; qd×28 i.v., rLZ-8 and mutants 0.5 mg/kg, sorafenib 50 mg/kg, 10 mice per group): 30%
